# Measurements reported in the supplement of paper PMC10724198.
# ± gives the standard deviation of the averaged measurements.
# Tested on: Saccharomyces cerevisiae
# Experiment: protein stability index of tFT-peptide fusion (C-terminal peptide) (PSI (0-1 scale)); higher = more stable (slower turnover)
# Settings: genetic background: wild type; temperature: 30 C
# Method: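 Multiplexed protein stability (MPS) profiling in S. cerevisiae. Random 12-aa peptides (tFT-X12 library) are fused to the C-terminus of a sfGFP-mCherry tandem fluorescent timer, after mCherry and a GGGS linker. Cells are FACS-sorted into 8 mCherry/sfGFP bins and deep-sequenced. The protein stability index (PSI) is the read-weighted bin average, scaled from 0 (unstable) to 1 (stable). Only peptides with >10 reads are reported; cells were grown at 30 °C in SC-His with glucose.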
# 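Also: PSI is a weighted mean of sequencing reads over stability bins, variants kept only with over 10 reads, mCherry proximal and sfGFP distal, peptide attached via GGGS linker.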
row,Sequence,protein stability index
1,FAWYSFYSPPPR,0.667 ± 0.0048
2,FCGFLVLGSFPV,0.664 ± 0.072
3,FCLIHCIVPFPV,0.507 ± 0.093
4,FCNPHVGGIRRA,0.684 ± 0.05
5,FCPVGVFCGIFG,0.644 ± 0.029
6,FCRLSHYLSASP,0.687 ± 0.17
7,FCSVTLPSRSCV,0.727 ± 0.098
8,FDCMVRVRTTVV,0.544 ± 0.027
9,FDLVFRPVLGLL,0.6246 ± 0.0052
10,FECDYLLCGAGL,0.744 ± 0.029
11,FELTSATWRGCF,0.685 ± 0.094
12,FEVRLRCLGYSG,0.718 ± 0.015
13,FFDPPPSLSALI,0.7724 ± 0.0037
14,FFEVFDNYRSLV,0.684 ± 0.051
15,FFFFPFLPFSWF,0.507 ± 0.0084
16,FFITFGFSSGSR,0.675 ± 0.068
17,FFPSPHVPPPPP,0.617 ± 0.018
18,FFPSPPPVLSPP,0.747 ± 0.021
19,FFSGYVVSTRHM,0.702 ± 0.089
20,FFSMVFVFGFRA,0.5 ± 0.015
21,FFSRFCYGFGRM,0.723 ± 0.066
22,FFSSALILSLRL,0.533 ± 0.023
23,FFVGAGGTEGLG,0.705 ± 0.0088
24,FFVVGEEFCVSV,0.649 ± 0.054
25,FGASSGSARVCG,0.682 ± 0.083
26,FGEAFYVGCVHV,0.698 ± 0.037

row,Sequence,protein stability index
1,FGFLDRVLLFRV,0.547 ± 0.013
2,FGFSSGRVRQRV,0.754 ± 0.011
3,FGGSGAYRRVGE,0.7 ± 0.072
4,FGGVGRGGLLWC,0.7749 ± 0.0041
5,FGIGWNDRLVEC,0.669 ± 0.057
6,FGSCVIFAAHWF,0.6467 ± 0.0025
7,FGSVGSIRTPDG,0.707 ± 0.0086
8,FGTKSLPSLLAM,0.583 ± 0.034
9,FGVRPVSVPLCG,0.592 ± 0.047
10,FGVSFFSGVNGV,0.681 ± 0.011
11,FGWKTGGRGTVM,0.742 ± 0.04
12,FHFFSFLSSVGF,0.6434 ± 0.0062
13,FHFPHPFLPFPS,0.666 ± 0.12
14,FHPRLGVRLGIT,0.632 ± 0.046
15,FHPRPPLLPSLP,0.6435 ± 0.003
16,FHRESAEPSLWS,0.697 ± 0.11
17,FHRHILCSDPRL,0.709 ± 0.022
18,FHRSNFLPFFHL,0.593 ± 0.092
19,FHYALRLLDFNN,0.716 ± 0.12
20,FIFHFLMFPGPL,0.56 ± 0.013
21,FIGLGPGVGGVW,0.704 ± 0.028
22,FIIIKTKKMTMK,0.7 ± 0.064
23,FIKTSDAVIGEK,0.563 ± 0.017
24,FISVFYMLFPYR,0.626 ± 0.013
25,FIVPLFPVFFSS,0.621 ± 0.05
26,FLAWPRSDYPGF,0.732 ± 0.022

row,Sequence,protein stability index
1,FLCLVASLFRFA,0.585 ± 0.043
2,FLCSRYRGYMPT,0.632 ± 0.086
3,FLFCWGCCRLFW,0.581 ± 0.1
4,FLFGILFTSRAV,0.5311 ± 0.0015
5,FLFTLPPPPRCH,0.709 ± 0.088
6,FLGLDLVFRFFV,0.554 ± 0.066
7,FLGQPLSFSHVL,0.692 ± 0.035
8,FLIRSSQSFELE,0.715 ± 0.035
9,FLKGTTSQQDYT,0.7022 ± 0.0056
10,FLLFASPPPRPL,0.715 ± 0.017
11,FLLPPPFLPLPL,0.691 ± 0.028
12,FLLSARGVIVFW,0.544 ± 0.018
13,FLLSLYSVPFVL,0.63984 ± 0.00021
14,FLNRDGFETLFC,0.686 ± 0.022
15,FLPPPPRRPFTR,0.6282 ± 0.0057
16,FLPRGPLPPSPF,0.595 ± 0.026
17,FLRCALRLRFGF,0.671 ± 0.038
18,FLRGRTPLTAGD,0.582 ± 0.022
19,FLSEPAKRILYL,0.667 ± 0.018
20,FLSFFVLGVPGG,0.707 ± 0.039
21,FLSHISVPRGKT,0.773 ± 0.034
22,FLVREGIGKRGC,0.641 ± 0.072
23,FLVRMIYYRRHP,0.616 ± 0.028
24,FMSGIVDLQRPL,0.691 ± 0.034
25,FMVFCFPFTGVL,0.562 ± 0.022
26,FMVVKWSPCAWC,0.539 ± 0.026

row,Sequence,protein stability index
1,FNFSSGLTGSWL,0.763 ± 0.024
2,FPASPQPPPPLP,0.627 ± 0.024
3,FPDGLGSVPRSP,0.68389 ± 0.0004
4,FPFTLSPTLFHS,0.714 ± 0.08
5,FPLFRSLLLFAP,0.5331 ± 0.00081
6,FPLLCAAPLLSS,0.594 ± 0.0012
7,FPLYKQKSGITY,0.651 ± 0.0081
8,FPPARPDFPPST,0.735 ± 0.025
9,FPPIHIHSPCYP,0.765 ± 0.021
10,FPPPPLYFPFPL,0.693 ± 0.017
11,FPQSDFFLLILS,0.549 ± 0.013
12,FPRPACRSTHIL,0.671 ± 0.065
13,FPRPPSVLACRP,0.645 ± 0.088
14,FPRVTGTKPPPA,0.7201 ± 0.0023
15,FPSPPLPSSSTS,0.708 ± 0.051
16,FQAERTGVTRAR,0.666 ± 0.0078
17,FQAVSPRFLVLP,0.64 ± 0.046
18,FQGSDCLYFGLL,0.741 ± 0.043
19,FQHFGAPPTWHE,0.742 ± 0.093
20,FQVCAPLPISRS,0.717 ± 0.029
21,FRAPVLCPSYYS,0.7064 ± 0.0049
22,FRDPPSILTSDT,0.621 ± 0.017
23,FRGAGAEGSGWG,0.634 ± 0.0066
24,FRLILGCPFACL,0.576 ± 0.034
25,FRLKRFSGTGYG,0.698 ± 0.035
26,FRLPAIRRGHDS,0.69 ± 0.069

row,Sequence,protein stability index
1,FRRILGTIKLGR,0.69 ± 0.023
2,FRTVRSMVGRRP,0.721 ± 0.077
3,FRWGGPSGEVRE,0.643 ± 0.1
4,FSACSGSHVEVW,0.695 ± 0.037
5,FSFFVESFPASF,0.668 ± 0.036
6,FSFIPIRRYPVM,0.733 ± 0.15
7,FSGFRFFLLWPW,0.678 ± 0.085
8,FSHLRASFADAA,0.687 ± 0.045
9,FSIFFFSFFSCF,0.563 ± 0.039
10,FSILYLLPPGPL,0.663 ± 0.092
11,FSKTLCGCQITC,0.658 ± 0.037
12,FSLCFSSFSLFP,0.676 ± 0.016
13,FSLPFLFCRPLS,0.6279 ± 0.0042
14,FSLPSRAPLPRF,0.735 ± 0.13
15,FSLSLACPPPHS,0.679 ± 0.19
16,FSLSRWFDEIAL,0.6438 ± 0.00075
17,FSLWPVRFVVDR,0.679 ± 0.041
18,FSNLVSAHFGLL,0.666 ± 0.042
19,FSPTPSRLSCDR,0.728 ± 0.027
20,FSPVSSFTLTLS,0.701 ± 0.11
21,FSRFWVSGGVVC,0.599 ± 0.0082
22,FSSPSFRSSLLL,0.679 ± 0.015
23,FSSTSAPPRSAP,0.621 ± 0.0078
24,FTARAGRLQSVF,0.627 ± 0.0097
25,FTCSAIIHVCGL,0.571 ± 0.035
26,FTISALSSTPRP,0.669 ± 0.042

row,Sequence,protein stability index
1,FTLYLASVHFTR,0.56 ± 0.044
2,FTVRSPSCISAE,0.631 ± 0.017
3,FVALWVGCCWLG,0.542 ± 0.011
4,FVAPPLCMPLSR,0.704 ± 0.04
5,FVCRRDIMSGIF,0.6565 ± 0.0052
6,FVDWGLFAFGCL,0.796 ± 0.062
7,FVFGVCGGGGIG,0.671 ± 0.11
8,FVGAYGRLCCMS,0.69 ± 0.031
9,FVGGNEGSYWAS,0.751 ± 0.035
10,FVGRWSSRSRGH,0.768 ± 0.022
11,FVILTPFYLTFH,0.51 ± 0.033
12,FVIWGCGVRSWC,0.618 ± 0.033
13,FVKRFSNGGVKT,0.775 ± 0.027
14,FVLATGVLLQQG,0.623 ± 0.024
15,FVLWFTSSGCSN,0.7598 ± 0.0039
16,FVPMDFILKFSR,0.699 ± 0.033
17,FVPPPVVPPFPL,0.716 ± 0.017
18,FVQEQGAKNNRH,0.746 ± 0.015
19,FVRAVLRLSSVF,0.645 ± 0.052
20,FVRCLFSSGCFF,0.728 ± 0.013
21,FVRGGWAVMLGG,0.58 ± 0.049
22,FVSSSVFFVFSF,0.627 ± 0.058
23,FVSWNLPLAFAF,0.499 ± 0.017
24,FVVVVVGGGWGG,0.516 ± 0.0068
25,FVWRVGGVRRGV,0.758 ± 0.09
